Experiment [1] addresses GAL4-DBD/DRIP205 receptor interaction domain fusion protein (human) (UniProt Q15648). Description: two-hybrid.
The target in experiment [2] is GAL4-DBD/DRIP205 receptor interaction domain fusion protein (human, UniProt Q15648 527-774). The experiment is described as follows: two-hybrid.
GAL4-DBD/DRIP205 receptor interaction domain fusion protein, sequence (Q15648 527-774): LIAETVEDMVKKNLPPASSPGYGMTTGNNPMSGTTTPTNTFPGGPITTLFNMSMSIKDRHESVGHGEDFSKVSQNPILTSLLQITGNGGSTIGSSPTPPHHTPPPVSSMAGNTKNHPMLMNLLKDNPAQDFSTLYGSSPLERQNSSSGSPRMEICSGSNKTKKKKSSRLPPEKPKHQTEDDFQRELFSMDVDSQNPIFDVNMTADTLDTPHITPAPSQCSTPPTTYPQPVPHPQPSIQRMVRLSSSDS

GAL4-DBD/DRIP205 receptor interaction domain fusion protein (human), sequence (Q15648 527-774): as above

In experiment [1], “VP16-AD/CAR-LBD fusion protein of CAR(SV2) (from UniProt Q14994-2 105-348) (domain or fragment)” gave a fold induction of the interaction by CITCO over Me2SO (two-hybrid reporter) of 100 fold.

B1: VP16-AD/CAR-LBD fusion protein of reference CAR(SV1) (domain or fragment, human, UniProt Q14994-2 105-348, looked up)
chain: QLSKEQEELIRTLLGAHTRHMGTMFEQFVQFRPPAHLFIHHQPLPTLAPVLPLVTHFADINTFMVLQVIKFTKDLPVFRSLPIEDQISLLKGAAVEICHIVLNTTFCLQTQNFLCGPLRYTIEDGARVGFQVEFLELLFHFHGTLRKLQLQEPEYVLLAAMALFSPDRPGVTQRDEIDQLQEEMALTLQSYIKGQQRRPRDRFLYAKLLGLLAELRSINEAYGYQIQHIQGLSAMMPLLQEICS
B1: in experiment [2], the “fold induction of the interaction by CITCO over Me2SO (two-hybrid reporter)” value was determined as 2 fold.
